Assay type in all cases: biochemical
Common to all, as to conditions: 1 hour at 37° C.

Experiment [1] has as its system human HNF-1α. In words: in vitro protein degradation test of HNF-1α by calpain (Western blotting). As to the method:
Using the HNF-1α expression plasmid, in vitro synthesis of HNF-1α protein was carried out using the TNT T7 Quick Coupled Transcription/Translation System. That is, the HNF-1α expression plasmid was mixed with TNT T7 Quick Master Mix, and then incubated for 1.5 hours at 30° C. in the presence of methionine to synthesize HNF-1α. Thereafter, immunoprecipitation was conducted by adding anti-Xpress antibody to the synthesized HNF-1α, mixing by inversion for 1 hour at 4° C., and then adding Protein G Sepharose 4 Fast Flow and mixing by inversion for an additional 1 hour at 4° C. Subsequently, Protein G Sepharose was collected by centrifugation and washed 3 times with washing buffer (50 mM Tris-HCl, pH 7.5/150 mM NaCl/0.2% Nonidet P-40), followed by rinsing with 200 mM Tris-HCl (pH 7.8) to obtain the HNF-1α sample as 20% slurry (hereunder, referred to as “HNF-1α slurry”).
Protein degradation tests were carried out in vitro by adding μ-calpain or m-calpain to the HNF-1α slurry, and incubating for 1 hour at 37° C. in the presence of 200 mM Tris-HCl (pH 7.8)/1 mM DTT/6 mM CaCl2. The final concentrations of the respective calpain in the reaction system were as follows: 50 units/mL of human μ-calpain; 50 μg/mL of rabbit m-calpain as a protein concentration; and 59 units/mL of rat m-calpain. For a control experiment, an HNF-1α slurry was incubated without the addition of calpain in a similar manner in the presence of calcium. Further, to test for protein degradation in the absence of calcium, a sample was prepared by adding 10 mM of EDTA instead of 6 mM of CaCl2 and was incubated in the same manner. The samples after incubation were added to an equal volume of 2×SDS sample buffer, heated for 5 minutes, and then subjected to 5-20% SDS-PAGE for separation. Thereafter, Western blotting was carried out to detect HNF-1α using anti-Omni/M21 antibody (Santa Cruz Biotechnology, Inc.), which recognizes a His-Xpress region, and anti-HNF-1α antibody/HNF-1α (C-19) antibody (Santa Cruz Biotechnology, Inc.). An ECL Western blotting detection kit was used for conducting the detection.
In-vitro protein degradation tests were carried out in the same manner as in Example 7, but the lysate of sf-9 cells that coexpressed m-calpain with calpain small subunit 1 was used as m-calpain. The final concentration of the lysate of the sf-9 cells that expressed these proteins in the reaction system was 1.75 mg/mL as a protein concentration. The final concentration of rat m-calpain in the reaction system was 59 units/mL. Detection of HNF-1α was performed in the same manner as Example 7, but only anti-HNF-1α antibody/HNF-1α (C-19) antibody was used.
(In western blotting, separated proteins are transferred to a membrane and probed.)

The test system of experiment [2] is human HNF-4α. In words: in vitro protein degradation test of HNF-4α by calpain (Western blotting). As to the method:
Using the HNF-4α expression plasmid, in vitro synthesis of HNF-4α protein was conducted using the TNT T7 Quick Coupled Transcription/Translation System (Promega, Inc.). That is, the HNF-4α expression plasmid was mixed with TNT T7 Quick Master Mix, and then incubated for 1.5 hours at 30° C. in the presence of methionine to synthesize HNF-4α.
The in vitro protein degradation test was carried out by adding m-calpain extracted from rabbit muscle (Protease, Calcium-Activated Neutral (calpain), Sigma Chemical Co.) at a final concentration of 50 μg/mL to the synthesized HNF-4α, and then incubating for 1 hour at 37° C. in the presence of 200 mM Tris-HCl (pH 7.8)/1 mM dithiothreitol (DTT)/6 mM CaCl2. To conduct a degradation test in the absence of calcium, a test sample was prepared by adding 10 mM ethylenediaminetetraacetic acid (EDTA) instead of 6 mM CaCl2, and the sample was then incubated in a similar manner. The samples after incubation were added to an equal volume of 2× sodium dodecyl sulfate (SDS) sample buffer (4% SDS/125 mM Tris-HCl, pH 6.8/20% glycerol/0.01% bromphenol blue (BPB)/10% β-mercaptoethanol), heated for 5 minutes, and subjected to 10% SDS-PAGE for separation. Thereafter, Western blotting was carried out to detect HNF-4α using anti-HNF-4α antibody/HNF-4α (C-19) antibody (Santa Cruz Biotechnology, Inc.) and anti-Xpress antibody (Invitrogen, Inc.). An ECL Western blotting detection kit (Amersham pharmacia biotech) was used for the detection.
The final concentration of human m-calpain in the reaction system was 2.33 mg/mL as the protein concentration of the lysate of sf-9 cells that expressed human m-calpain. The final concentration of rat m-calpain in the reaction system was 59 units/mL. A degradation test was also conducted in the same manner without addition of calpain. Further, to test for degradation in the absence of calcium, a sample was prepared by adding 10 mM of EDTA instead of 6 mM CaCl2, and a degradation test was conducted with the sample in a similar manner. The samples after incubation were added to an equal volume of 2×SDS sample buffer, heated for 5 minutes, and subjected to 5-20% SDS-PAGE for separation. Thereafter, Western blotting was carried out to detect HNF-4α using anti-HNF-4α antibody/HNF-4α (C-19) antibody. An ECL Western blotting detection kit was used for the detection.
An in vitro protein degradation test was carried out by adding μ-calpain to HNF-4α at a final concentration of 50 units/mL, and incubating for 1 hour at 37° C. in the presence of 200 mM Tris-HCl (pH 7.8)/1 mM DTT/6 mM CaCl2. […]

The test system of experiment [3] is human IPF-1. Kind of experiment: in vitro protein degradation test of IPF-1 by calpain (Western blotting). As for the experimental part:
Using the IPF-1 expression plasmid, synthesis of IPF-1 protein was carried out in vitro using the TNT T7 Quick Coupled Transcription/Translation System. That is, the IPF-1 expression plasmid was mixed with TNT T7 Quick Master Mix, and then incubated for 1.5 hours at 30° C. in the presence of methionine to synthesize IPF-1.
Protein degradation tests were carried out in vitro by adding μ-calpain or m-calpain to IPF-1, and incubating for 1 hour at 37° C. in the presence of 200 mM Tris-HCl (pH 7.8)/1 mM DTT/6 mM CaCl2. The final concentrations of each calpain in the reaction systems were as follows: 50 units/mL of human μ-calpain; 50 μg/mL of rabbit m-calpain as a protein concentration, and 59 units/mL of rat m-calpain. For a control experiment, IPF-1 was incubated without addition of calpain in the same manner in the presence of calcium. Further, to test for protein degradation in the absence of calcium, a sample was prepared by adding 10 mM of EDTA instead of 6 mM of CaCl2, and incubated in the same manner. The samples after incubation were added to an equal volume of 2×SDS sample buffer, heated for 5 minutes, and subjected to 5-20% SDS-PAGE for separation. Thereafter, Western blotting was carried out to detect IPF-1 using anti-Xpress antibody and anti-IPF1 (PDX-1) antibody/N-18 (Santa Cruz Biotechnology, Inc.). The ECL Western blotting detection kit was used for conducting the detection.
In-vitro protein degradation tests were carried out in the same manner as Example 10, but the lysate of sf-9 cells that coexpressed m-calpain with calpain small subunit 1 was used as m-calpain. The final concentration of the lysate of sf-9 cells that expressed these proteins in the reaction system was 2.33 mg/mL as a protein concentration. The final concentration of rat m-calpain in the reaction system was 59 units/mL. Detection of IPF-1 was performed in the same manner as Example 10, but only anti-IPF-1 antibody/N-18 was used.

The mark [4] stands for this setting: in the absence of calcium (10 mM EDTA instead of CaCl2).
[5] abbreviates: in the presence of calcium (6 mM CaCl2), Western blotting.

B1: human μ-calpain: μ-Calpain extracted from human erythrocytes (Calpain 1, human erythrocytes; Calbiochem, Inc.) (protein, UniProt P07384 2-714; P04632 1-268, looked up)
Calpain-1 catalytic subunit: SEEIITPVYCTGVSAQVQKQRARELGLGRHENAIKYLGQDYEQLRVRCLQSGTLFRDEAFPPVPQSLGYKDLGPNSSKTYGIKWKRPTELLSNPQFIVDGATRTDICQGALGDCWLLAAIASLTLNDTLLHRVVPHGQSFQNGYAGIFHFQLWQFGEWVDVVVDDLLPIKDGKLVFVHSAEGNEFWSALLEKAYAKVNGSYEALSGGSTSEGFEDFTGGVTEWYELRKAPSDLYQIILKALERGSLLGCSIDISSVLDMEAITFKKLVKGHAYSVTGAKQVNYRGQVVSLIRMRNPWGEVEWTGAWSDSSSEWNNVDPYERDQLRVKMEDGEFWMSFRDFMREFTRLEICNLTPDALKSRTIRKWNTTLYEGTWRRGSTAGGCRNYPATFWVNPQFKIRLDETDDPDDYGDRESGCSFVLALMQKHRRRERRFGRDMETIGFAVYEVPPELVGQPAVHLKRDFFLANASRARSEQFINLREVSTRFRLPPGEYVVVPSTFEPNKEGDFVLRFFSEKSAGTVELDDQIQANLPDEQVLSEEEIDENFKALFRQLAGEDMEISVKELRTILNRIISKHKDLRTKGFSLESCRSMVNLMDRDGNGKLGLVEFNILWNRIRNYLSIFRKFDLDKSGSMSAYEMRMAIESAGFKLNKKLYELIITRYSEPDLAVDFDNFVCCLVRLETMFRFFKTLDTDLDGVVTFDLFKWLQLTMFA
Calpain small subunit 1: MFLVNSFLKGGGGGGGGGGGLGGGLGNVLGGLISGAGGGGGGGGGGGGGGGGGGGGTAMRILGGVISAISEAAAQYNPEPPPPRTHYSNIEANESEEVRQFRRLFAQLAGDDMEVSATELMNILNKVVTRHPDLKTDGFGIDTCRSMVAVMDSDTTGKLGFEEFKYLWNNIKRWQAIYKQFDTDRSGTICSSELPGAFEAAGFHLNEHLYNMIIRRYSDESGNMDFDNFISCLVRLDAMFRAFKSLDKDGTGQIQVNIQEWLQLTMYS
As for B1, the “degradation of HNF-1α” value in experiment [1] (setting [4]) was “not degraded”; in experiment [1] (setting [5]) it was “observed”. Moreover, the “degradation of HNF-4α” value in experiment [2] (setting [4]) is “not observed”; in experiment [2] (setting [5]), “observed”. The “degradation of IPF-1” value in experiment [3] (setting [4]) was “not degraded”; in experiment [3] (setting [5]), “observed”.

B2: rat m-calpain: rat m-calpain (Calpain 2, rat recombinant, E. coli, Calbiochem, Inc.), positive control (protein)
chain: MAGIAMKLAKDREAAEGLGSHERAIKYLNQDYETLRNECLEAGALFQDPSFPALPSSLGFKELGPYSSKTRGIEWKRPTEICADPQFIIGGATRTDICQGALGDCWLLAAIASLTLNEEILARVVPLDQSFQENYAGIFHFQFWQYGEWVEVVVDDRLPTKDGELLFVHSAEGSEFWSALLEKAYAKINGCYEALSGGATTEGFEDFTGGIAEWYELRKPPPNLFKIIQKALEKGSLLGCSIDITSAADSEAVTYQKLVKGHAYSVTGAEEVESSGSLQKLIRIRNPWGQVEWTGKWNDNCPSWNTVDPEVRANLTERQEDGEFWMSFSDFLRHYSRLEICNLTPDTLTCDSYKKWKLTKMDGNWRRGSTAGGCRNYPNTFWMNPQYLIKLEEEDEDDEDGERGCTFLVGLIQKHRRRQRKMGEDMHTIGFGIYEVPEELTGQTNIHLSKNFFLTTRARERSDTFINLREVLNRFKLPPGEYVLVPSTFEPHKNGDFCIRVFSEKKADYQTVDDEIEANIEEIEANEEDIGDGFRRLFAQLAGEDAEISAFELQTILRRVLAKREDIKSDGFSIETCKIMVDMLDEDGSGKLGLKEFYILWTKIQKYQKIYREIDVDRSGTMNSYEMRKALEEAGFKLPCQLHQVIVARFADDELIIDFDNFVRCLVRLEILFKIFKQLDPENTGTIQLDLISWLSFSVL
Take B2: the “degradation of HNF-1α” value in experiment [1] (setting [4]) was “not degraded”; in experiment [1] (setting [5]), “observed”. The entries for the “degradation of IPF-1” value in experiment [3] (setting [4]) and in experiment [3] (setting [5]) were “not degraded” and “observed”, respectively.

These data come from patent US20070004636A1, “Method of degrading transcriptional factors of saccharometabolism-associated gene, method for inhibiting the degradation, and agent for inhibiting degradation and degradation inhibitor” (priority 2002, published 2007).
